Source: US9273304B2, “Inactivation method” (Thermo Fisher Scientific Baltics UAB, priority 2006, dated 2016)

What was measured:
Assay type in all cases: biochemical
[1] = target: T1, Taq DNA polymerase (Thermus aquaticus, UniProt P19821); assay: Polymerase activity assay: incorporation of [3H]-dTTP into the polynucleotide adsorbed on DE-81 in 30 min at 70° C.; conditions: for Activity at 70° C. (%) After 10 min. preheating at 95° C. / Activity at 70° C. (%) Without preheating at 95° C.: aqueous solution
Protocol: The measure of the enzyme activity was incorporation of [^3H]-dTTP into polynucleotide fraction. One unit of polymerase activity is defined as the enzyme amount which incorporates 10 nmoles of deoxyribonucleotides into the polynucleotide adsorbed on DE-81 in 30 min at 70° C.
For activity assays, Taq DNA polymerase was diluted up to 4 u/ml with the dilution buffer of the following composition: 20 mM Tris-HCl (pH 8.8 at 25° C.), 1 mM EDTA, 1 mM DTT, and BSA (0.1 mg/ml). Reactions were carried out at 70° C. for 30 min with 5 μl of the diluted enzyme in 50 μl of the reaction buffer of the following composition: 67 mM Tris-HCl (pH 8.8 at 25° C.), 50 mM NaCl, 6.7 mM MgCl2, 1 mM DTT, and BSA (0.1 mg/ml). The reaction buffer was supplemented with 0.2 mM dNTP, [3H]-dTTP (0.4 MBq/ml) and 0.75 mM activated DNA from calf thymus.
Activity of the modified enzymes was measured either with the pre-incubation step, or without it, for 10 min at 95° C. in the pre-heating buffer of the following composition: 20 mM Tris-HCl (pH 8.25 at 25° C.), 100 mM KCl, 2 mM MgCl2, 0.5% Tween 20, 0.5% Nonidet P40, and 16% glycerol.
Aliquots (35 μl) of the enzyme solution were mixed with 2.25 μl aliquots of the N-ethoxycarbonyl-2,3-dimethylmaleinimide solutions described above resulting in the following molar ratios of Taq DNA polymerase to N-ethoxycarbonyl-2,3-dimethylmaleinimide: 1/1280 1/640, 1/320, 1/160, 1/110, 1/80, 1/40. The mixtures were incubated for 20 hours at 4° C. to modify the Taq DNA polymerase. Control samples, in which the enzyme was left unmodified (e.g., the ratio was 1/0), were obtained by mixing the Taq DNA polymerase with a 2.25 μl aliquot of DMF. These control samples were incubated under the same conditions as the modified ones.
The samples of the unmodified Taq DNA polymerase and the modified Taq DNA polymerases were diluted 250-fold in the pre-heating buffer (see Example 2) and activities of the modified enzyme were measured both before heat-reactivation and after it, as described in the Example 2. Activities of both inactivated and heat-reactivated DNA polymerases were determined as described in the Example 2, and the data were normalized to activity of the unmodified Taq DNA polymerase
Aliquots (20.6 μl) of the diluted enzyme solution were mixed with 1 μl of N-isobutoxycarbonyl-2,3-dimethylmaleinimide solutions described above resulting in different molar ratios of Taq DNA polymerase to N-isobutoxycarbonyl-2,3-dimethylmaleinimide (1/320, 1/160, 1/80 and 1/40). The mixtures were incubated 20 hours at 4° C. to modify the Taq DNA polymerase. Control samples, in which the enzyme was left unmodified (e.g., the ratio was 1/0), were obtained by mixing the Taq DNA polymerase with a 1 μl aliquot of DMF. These control samples were incubated under the same conditions as the modified ones. The heat-reactivation of the modified enzymes was performed as described in the Example 3.

[2] = target: T1, Taq DNA polymerase; assay: Reactivation of the modified Taq DNA polymerase by pre-incubation, activity measured at 50° C.
Protocol: The activity of modified Taq DNA polymerase was assayed as described in the Example 2. The enzyme was pre-incubated at different temperatures in the pre-heating buffer (see Example 2), its activity was measured at 50° C. in the reaction buffer of the following composition: 50 mM Tris (pH 8.4 at 25° C.), 10 mM KCl, 5 mM (NH4)2SO4 and 2 mM MgCl2. The activity of the modified DNA polymerase was normalized the activity of the unmodified one.

[3] = target: T1, Taq DNA polymerase; assay: Temperature effect on activity of modified versus unmodified Taq DNA polymerase; conditions: FIG. 7
Protocol: The activity assay for both DNA polymerases was as described in the Example 2 with the following modifications: • 1. DNA polymerization using the unmodified DNA polymerase was carried out in the buffer of the following composition: 10 mM Tris-HCl (pH 8.8 at 25° C.), 50 mM KCl, 1.5 mM MgCl2, and 0.08% Nonidet P40. • 2. DNA polymerization using the modified DNA polymerase was carried out in the buffer of the following composition: 20 mM Tris-HCl (pH 8.3 at 25° C.), 20 mM KCl, 5 mM (NH4)2SO4, and 1.5 mM MgCl2.
Enzyme activities at different temperatures were normalized to the activity of the unmodified Taq DNA polymerase at 70° C.

[4] = molar ratio Taq DNA polymerase/N-etoxycarbonyl-2,3-dimethylmaleinimide 1/80
[5] = molar ratio Taq DNA polymerase/N-etoxycarbonyl-2,3-dimethylmaleinimide 1/110
[6] = molar ratio Taq DNA polymerase/N-etoxycarbonyl-2,3-dimethylmaleinimide 1/160
[7] = molar ratio Taq DNA polymerase/N-etoxycarbonyl-2,3-dimethylmaleinimide 1/320
[8] = molar ratio Taq DNA polymerase/N-etoxycarbonyl-2,3-dimethylmaleinimide 1/640
[9] = molar ratio Taq DNA polymerase/N-etoxycarbonyl-2,3-dimethylmaleinimide 1/1280

T1 sequence (P19821 whole entry): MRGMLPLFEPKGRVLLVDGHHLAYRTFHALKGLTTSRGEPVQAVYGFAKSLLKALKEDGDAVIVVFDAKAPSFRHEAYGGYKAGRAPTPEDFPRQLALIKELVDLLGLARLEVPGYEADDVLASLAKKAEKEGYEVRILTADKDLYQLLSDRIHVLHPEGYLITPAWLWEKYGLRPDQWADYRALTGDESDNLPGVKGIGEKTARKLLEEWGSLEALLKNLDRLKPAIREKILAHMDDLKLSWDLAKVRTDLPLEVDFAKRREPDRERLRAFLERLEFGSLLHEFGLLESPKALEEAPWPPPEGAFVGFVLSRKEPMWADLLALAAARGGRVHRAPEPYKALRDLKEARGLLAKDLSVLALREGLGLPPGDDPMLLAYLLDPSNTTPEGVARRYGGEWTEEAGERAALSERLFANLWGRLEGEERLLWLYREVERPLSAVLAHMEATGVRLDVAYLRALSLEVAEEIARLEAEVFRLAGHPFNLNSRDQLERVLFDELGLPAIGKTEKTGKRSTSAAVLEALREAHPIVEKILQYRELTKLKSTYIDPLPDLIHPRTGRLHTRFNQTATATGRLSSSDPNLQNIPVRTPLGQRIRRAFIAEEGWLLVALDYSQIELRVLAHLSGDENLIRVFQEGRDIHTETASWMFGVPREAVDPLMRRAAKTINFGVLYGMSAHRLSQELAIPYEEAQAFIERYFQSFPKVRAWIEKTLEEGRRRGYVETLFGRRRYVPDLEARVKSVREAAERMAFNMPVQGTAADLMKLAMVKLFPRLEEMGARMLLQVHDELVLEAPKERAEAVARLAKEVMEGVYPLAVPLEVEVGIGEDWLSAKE

Taq DNA polymerase modified with N-etoxycarbonyl-2,3-dimethylmaleinimide: Recombinant Taq DNA polymerase reversibly inactivated by reaction with N-ethoxycarbonyl-2,3-dimethylmaleinimide in aqueous solution (preferred molar ratio 1/110)
restoration of the enzyme activity after incubation for 10 min at 94° C. ([1]; incubation 10 min at 94° C.): almost in the complete restoration of the enzyme activity | Activity at 70° C. (%) After 10 min. preheating at 95° C. ([1]; molar ratio Taq DNA polymerase/N-etoxycarbonyl-2,3-dimethylmaleinimide 1/40): ~100% | Activity at 70° C. (%) Without preheating at 95° C. ([1]; molar ratio Taq DNA polymerase/N-etoxycarbonyl-2,3-dimethylmaleinimide 1/40, normalized to unmodified enzyme): ~30% | Activity at 70° C. (%) After 10 min. preheating at 95° C. [1, 4]: ~90% | Activity at 70° C. (%) Without preheating at 95° C. [1, 4]: ~20% | Activity at 70° C. (%) After 10 min. preheating at 95° C. [1, 5]: ~100% | Activity at 70° C. (%) Without preheating at 95° C. [1, 5]: ~20% | Activity at 70° C. (%) After 10 min. preheating at 95° C. [1, 6]: ~90% | Activity at 70° C. (%) Without preheating at 95° C. [1, 6]: ~20% | Activity at 70° C. (%) After 10 min. preheating at 95° C. [1, 7]: ~90% | Activity at 70° C. (%) Without preheating at 95° C. [1, 7]: ~30% | Activity at 70° C. (%) After 10 min. preheating at 95° C. [1, 8]: ~50% | Activity at 70° C. (%) Without preheating at 95° C. [1, 8]: ~40% | Activity at 70° C. (%) After 10 min. preheating at 95° C. [1, 9]: ~80% | Activity at 70° C. (%) Without preheating at 95° C. [1, 9]: ~90% | specific activity retained at 70° C. temperature without preheating ([1]; several independent experiments, preferred modification (N-ethoxycarbonyl-2,3-dimethylmaleinimide, aqueous, 1/110)): 21±6% | Activity at 50° C. (%) ([2]; incubation time at 95° C. 0 min): ~0% | Activity at 50° C. (%) ([2]; incubation time at 95° C. 0.5 min, listed as modified Taq DNA polymerase): ~60% | Activity at 50° C. (%) ([2]; incubation time at 95° C. 0.5 min, listed as modified enzyme): ~60% | Activity at 50° C. (%) ([2]; incubation time at 95° C. 1 min, listed as modified Taq DNA polymerase): ~90% | Activity at 50° C. (%) ([2]; incubation time at 95° C. 1 min, listed as modified enzyme): ~90% | Activity at 50° C. (%) ([2]; incubation time at 95° C. 1.5 min): ~90% | Activity at 50° C. (%) ([2]; incubation time at 95° C. 2.0 min): ~100% | Activity at 50° C. (%) ([2]; incubation time at 95° C. 3.0 min): ~100% | reactivation by preheating at 90° C. ([2]; preheated at 90° C. for several minutes, FIG. 8): regained full activity | residual activity at 70° C. ([3]; 70° C., normalized to unmodified Taq DNA polymerase at 70° C.): ~20% | activity at different temperatures up to 50° C. ([3]; up to 50° C., without reactivation): practically inactive
